{
  "source": "paper PMC4434180",
  "origin": "cited, not measured here",
  "target": "PriL (p58) NTD (Homo sapiens) (UniProt P49643)",
  "sequence (P49643 1-253)": "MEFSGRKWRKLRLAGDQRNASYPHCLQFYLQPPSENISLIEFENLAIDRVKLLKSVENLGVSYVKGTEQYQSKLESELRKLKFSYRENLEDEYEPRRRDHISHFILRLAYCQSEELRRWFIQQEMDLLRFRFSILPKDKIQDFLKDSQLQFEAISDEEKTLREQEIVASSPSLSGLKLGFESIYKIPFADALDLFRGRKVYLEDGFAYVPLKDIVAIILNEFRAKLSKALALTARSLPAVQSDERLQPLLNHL",
  "data": [
    {"substance": "PriS (p49) (from UniProt P49642)", "values": [
      {"measurement": "Kd", "result": 0.46, "unit": "nM"}
    ]}
  ]
}
